Measured values from the supplement of paper PMC10724198.
± gives the standard deviation of the averaged measurements.

Tested on: Saccharomyces cerevisiae
Test: protein stability index of tFT-peptide fusion (C-terminal peptide) (PSI (0-1 scale)); higher = more stable (slower turnover)
Conditions: temperature: 30 C
Experimental: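 MPS profiling in S. cerevisiae of the yeast C-terminome library: the last 12 aa of each annotated ORF are fused to the C-terminus of a sfGFP-mCherry timer, after a GGGS linker. Cells are FACS-sorted into 8 mCherry/sfGFP bins and deep-sequenced. PSI runs from 0 (unstable) to 1 (stable); wild type and das1Δ backgrounds, two technical replicates each.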

[1] = genetic background: das1 deletion

Sequence	protein stability index [1]	protein stability index (genetic background: wild type)
AALESEDEDDEA [CAF20 C-terminal 12 aa]	0.685 ± 0.041	0.6667 ± 0.0033
ADDDFDADMELE [CDC16 C-terminal 12 aa]	0.685 ± 0.0038	0.728 ± 0.028
ADQELFMGIMNA [NMD5 C-terminal 12 aa]	0.676 ± 0.012	0.677 ± 0.0097
AERAGNAGVKAE [SND3 C-terminal 12 aa]	0.654 ± 0.0096	0.685 ± 0.017
AFTAKWKAENKQ [FYV4 C-terminal 12 aa]	0.691 ± 0.017	0.6671 ± 0.0054
AGAAAVANQGKK [GPM1 C-terminal 12 aa]	0.697 ± 0.016	0.715 ± 0.064
AIAEIKKSLAFA [SDH2 C-terminal 12 aa]	0.684 ± 0.024	0.688 ± 0.086
AIRRENEWAEDR [SKP1 C-terminal 12 aa]	0.6841 ± 0.005	0.709 ± 0.0089
AKDIKGYGTQKI [PRE4 C-terminal 12 aa]	0.65979 ± 0.00058	0.695 ± 0.022
AKISDKENKAFL [MRPL15 C-terminal 12 aa]	0.6927 ± 0.0019	0.678 ± 0.025
AKPALFERFINA [MCD1 C-terminal 12 aa]	0.6979 ± 0.0043	0.665 ± 0.011
AKTSLYTATVIS [PAC11 C-terminal 12 aa]	0.636 ± 0.015	0.6331 ± 0.006
ALNQVLGVPGAM [SSH1 C-terminal 12 aa]	0.683 ± 0.017	0.671 ± 0.031
ALVDQLIAKYSS [ACB1 C-terminal 12 aa]	0.703 ± 0.029	0.663 ± 0.042
ANARLESESKDP [UNG1 C-terminal 12 aa]	0.6954 ± 0.0034	0.667 ± 0.033
ANGTSPGVHVRE [IRC15 C-terminal 12 aa]	0.693 ± 0.0096	0.678 ± 0.017
ARGAGGFGSTGN [DUT1 C-terminal 12 aa]	0.697 ± 0.0079	0.7208 ± 0.0062
ARRTFTGRKIVY [ARC35 C-terminal 12 aa]	0.7301 ± 0.0013	0.7288 ± 0.0052
ASEKEKSECVVM [MIY2 C-terminal 12 aa]	0.733 ± 0.017	0.745 ± 0.0097
ASFAKDVISLPE [YER046W-A C-terminal 12 aa]	0.7202 ± 0.00094	0.699 ± 0.079
ASRHSSTKKTST [CAB1 C-terminal 12 aa]	0.6986 ± 0.0058	0.692 ± 0.054
ATGTKSDRPIWR [SHE1 C-terminal 12 aa]	0.6627 ± 0.00093	0.72 ± 0.034

Sequence	protein stability index [1]	protein stability index (genetic background: wild type)
ATRNLNQYWRVL [YAL019W-A C-terminal 12 aa]	0.68 ± 0.011	0.58 ± 0.023
AVGETRLKKSKK [PRP21 C-terminal 12 aa]	0.689 ± 0.016	0.779 ± 0.12
AVSEELIKMWYD [GCN3 C-terminal 12 aa]	0.7218 ± 0.0015	0.736 ± 0.037
AYECAKHFLMTY [MRS3 C-terminal 12 aa]	0.689 ± 0.033	0.653 ± 0.057
CFRWLVRNHLLS [YEL045C C-terminal 12 aa]	0.692 ± 0.0081	0.187 ± 0.0022
CHAYAKKAKEFL [PAM17 C-terminal 12 aa]	0.694 ± 0.019	0.7 ± 0.047
CKSHAITNNITM [YER152C C-terminal 12 aa]	0.711 ± 0.026	0.687 ± 0.0091
CPTPGCTCQCNK [SEA4 C-terminal 12 aa]	0.69 ± 0.015	0.659 ± 0.0093
CRKGVSHKGVCH [YBL111C C-terminal 12 aa]	0.721 ± 0.026	0.71 ± 0.035
CSTFAFAERLQC [YIL021C-A C-terminal 12 aa]	0.6901 ± 0.003	0.642 ± 0.029
CYYKTQKSQISN [SIP1 C-terminal 12 aa]	0.715 ± 0.011	0.727 ± 0.016
DALHKMDKNVLE [YOL029C C-terminal 12 aa]	0.696 ± 0.028	0.728 ± 0.076
DAMEFIAQSHKS [OCT1 C-terminal 12 aa]	0.694 ± 0.011	0.719 ± 0.021
DASALIEIQEKC [SST2 C-terminal 12 aa]	0.669 ± 0.021	0.695 ± 0.059
DASSTKNTDHIV [MEP2 C-terminal 12 aa]	0.678 ± 0.014	0.679 ± 0.068
DDDDDDDDDEAD [RAD6 C-terminal 12 aa]	0.686 ± 0.015	0.667 ± 0.0086
DDDEMDIEFEDV [TFA1 C-terminal 12 aa]	0.71135 ± 0.00066	0.739 ± 0.01
DDEAGALIPENC [SOL4 C-terminal 12 aa]	0.705 ± 0.03	0.688 ± 0.0086
DDECTYKMAKFK [YNL303W C-terminal 12 aa]	0.68172 ± 0.00037	0.664 ± 0.035
DDEEDEEEGQVA [USO1 C-terminal 12 aa]	0.704 ± 0.013	0.66 ± 0.027
DEEDEEDVKTEV [CAB3 C-terminal 12 aa]	0.6848 ± 0.0014	0.664 ± 0.016
